Source: patent publication US20230117831

Assays:
BRD4 peptide S358 = biological target: T1, BRD4 peptide S358
T1 chain: EQLKCCSGILKEMRR

BRD4 peptide S338 = biological target: T2, BRD4 peptide S338
T2 chain: KKDVPDSQQHPAPRR

[1] = biological target: BRD4-GST (BD1 and BD2 (49-460)) (BPS Bioscience 31044), O60885
BRD4 peptide S325 = biological target: T3, BRD4 peptide S325
T3 chain: GQRRESSRPVKPPRR

BRD4 peptide T169 = biological target: T4, BRD4 peptide T169
T4 chain: ELPTEETEIMIVQRR

B1: AMPK α1β1γ1-His tag (SignalChem P47-10H) (protein)
chain 1: MRRLSSWRKMATAEKQKHDGRVKIGHYILGDTLGVGTFGKVKVGKHELTGHKVAVKILNRQKIRSLDVVGKIRREIQNLKLFRHPHIIKLYQVISTPSDIFMVMEYVSGGELFDYICKNGRLDEKESRRLFQQILSGVDYCHRHMVVHRDLKPENVLLDAHMNAKIADFGLSNMMSDGEFLRTSCGSPNYAAPEVISGRLYAGPEVDIWSSGVILYALLCGTLPFDDDHVPTLFKKICDGIFYTPQYLNPSVISLLKHMLQVDPMKRATIKDIREHEWFKQDLPKYLFPEDPSYSSTMIDDEALKEVCEKFECSEEEVLSCLYNRNHQDPLAVAYHLIIDNRRIMNEAKDFYLATSPPDSFLDDHHLTRPHPERVPFLVAETPRARHTLDELNPQKSKHQGVRKAKWHLGIRSQSRPNDIMAEVCRAIKQLDYEWKVVNPYYLRVRRKNPVTSTYSKMSLQLYQVDSRTYLLDFRSIDDEITEAKSGTATPQRSGSVSNYRSCQRSDSDAEAQGKSSEVSLTSSVTSLDSSPVDLTPRPGSHTIEFFEMCANLIKILAQ
chain 2: MGNTSSERAALERHGGHKTPRRDSSGGTKDGDRPKILMDSPEDADLFHSEEIKAPEKEEFLAWQHDLEVNDKAPAQARPTVFRWTGGGKEVYLSGSFNNWSKLPLTRSHNNFVAILDLPEGEHQYKFFVDGQWTHDPSEPIVTSQLGTVNNIIQVKKTDFEVFDALMVDSQKCSDVSELSSSPPGPYHQEPYVCKPEERFRAPPILPPHLLQVILNKDTGISCDPALLPEPNHVMLNHLYALSIKDGVMVLSATHRYKKKYVTTLLYKPI
chain 3: METVISSDSSPAVENEHPQETPESNNSVYTSFMKSHRCYDLIPTSSKLVVFDTSLQVKKAFFALVTNGVRAAPLWDSKKQSFVGMLTITDFINILHRYYKSALVQIYELEEHKIETWREVYLQDSFKPLVCISPNASLFDAVSSLIRNKIHRLPVIDPESGNTLYILTHKRILKFLKLFITEFPKPEFMSKSLEELQIGTYANIAMVRTTTPVYVALGIFVQHRVSALPVVDEKGRVVDIYSKFDVINLAAEKTYNNLDVSVTKALQHRSHYFEGVLKCYLHETLETIINRLVEAEVHRLVVVDENDVVKGIVSLSDILQALVLTGGEKKP
ADP-Glo assay, phosphorylation of the peptide by AMPK compared with the SAMS peptide (BRD4 peptide S358): these peptides showed a 250-fold lower preference for phosphorylation than AMPK's natural ACC substrate-SAMS peptide
ADP-Glo assay, phosphorylation of the peptide by AMPK compared with the SAMS peptide (BRD4 peptide S338): these peptides showed a 250-fold lower preference for phosphorylation than AMPK's natural ACC substrate-SAMS peptide
BRD4 phosphorylation, western blot with phospho-AMPK substrate motif antibody [1]: Applicants observed BRD4 phosphorylation only when PHICS, BRD4, and kinase were present
ADP-Glo assay, phosphorylation of the peptide by AMPK compared with the SAMS peptide (BRD4 peptide S325): these peptides showed a 250-fold lower preference for phosphorylation than AMPK's natural ACC substrate-SAMS peptide
ADP-Glo assay, phosphorylation of the peptide by AMPK compared with the SAMS peptide (BRD4 peptide T169): these peptides showed a 250-fold lower preference for phosphorylation than AMPK's natural ACC substrate-SAMS peptide
